# According to the nanobody polyreactivity screen of Harvey et al. (2022):
# Experiment: yeast display, Sf9 membrane polyspecificity reagent, FACS + sequencing; frameworks hold sequencing errors
# How it was run: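 Synthetic nanobody libraries on Saccharomyces cerevisiae BJ5465 were galactose-induced for 36–48 hours, stained 1 hour at 4 °C with 10% biotinylated, detergent-solubilized Sf9 membrane reagent and enriched on streptavidin microbeads. FACS then separated cells into low and high (top ~1%) gates by anti-HA (expression) and streptavidin (reagent binding) fluorescence. Genes were colony-PCR amplified, MiSeq 2 × 250 sequenced and CDR-length filtered. A clone's polyreactivity label is that of its gate of origin.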
row,Sequence,polyreactivity (PSR sort gate)
1,QVQLVESGGGLVQAGGSLRLSCAASGRIFTVYAMGWYRQAPGKERELVAAIDFSDGTTYYADSVKARFTISRDNAKNTVYLQMNSLKPEDTAVYYCAAEGGSALDDDYWGQGTQVTVSS,high polyreactivity
2,QVQLVESGGGLVQAGGSLRLSCAASGRIFTWYAMGWYRQAPGKERELVAAISWSGGRTYYADSVKGRFTISRDNAKNTVYLQMNSLKPEDTAVYYCNAVPSVRWRYDYWGQGTQVTVSS,high polyreactivity
3,QVQLVESGGGLVQAGGSLRLSCAASGRIFTYNAMGWSRQAPGKERELVAAISSSGGSTYYADSVKGRFTISRDIAKYTVYLHMNSLKPEDTAVYYCAADDAGFWYYFYGRYVTFDYWGQGTQVTVSS,low polyreactivity
4,QVQLVESGGGLVQAGGSLRLSCAASGRIFTYNAMGWYRQAPGKEWELVAVISRRGGSTYYADSVKGRFTISRDNAKNSVYLQINSLKPDDTAVYYWAADLPSYPYEFWGQGTQVTVSS,low polyreactivity
5,QVQLVESGGGLVQAGGSLRLSCAASGRIFTYNAMGWYRQAPGKEWELVAVISRRGGSTYYADSVKGRFTISRDNAKNSVYLQMNSLKPEDTAVYYCAADLPSYAYEFWGQGTQVTVSS,low polyreactivity
6,QVQLVESGGGLVQAGGSLRLSCAASGRIFTYYAKGWYRQAPGKERELVAAISWSGGSTYYADSVKARITISRDNAKKTVYLVMNSLNPEDTAVYYCNAVYPSVYPVSTRYYWGQGTQVTVSS,high polyreactivity
7,QVQLVESGGGLVQAGGSLRLSCAASGRIFTYYAMGWYRQAPGKERELVAAISYSGSSTYYADSVKGRFTISRDNAKNTVYLQMNSLKPEDTAVYYCAAAPSGHYLAYGYWGQGTQVTVSS,high polyreactivity
8,QVQLVESGGGLVQAGGSLRLSCAASGRIFTYYAMGWYRQAPGKERELVAAITGSGTSTYYADSVKGRFTISRDNAKNTVYLQMNSLKPEDTAVYYCAARNSYSRYYYWGQGTQVTVSS,high polyreactivity
9,QVQLVESGGGLVQAGGSLRLSCAASGRIFTYYAMGWYRQAPGKERELVASISKSSGSTYYADSVKGRFTISRDNAKNTVYLQMNSLKPEDTAVYYCATDPYVRRSPSWYDYWGQGTQVTVSS,low polyreactivity
10,QVQLVESGGGLVQAGGSLRLSCAASGRIFVDNAMGWYRQAPGKERELVAAITGGGSTYADSVKGRFTISRDNAKNTVYLQMNSLKPEDTAVYYCAADLWSVPFTVYTFGIFYYWGQGTQVTVSS,low polyreactivity
11,QVQLVESGGGLVQAGGSLRLSCAASGRIFVDNAMGWYRQAPGKESELVADITSGGSTYYADSVKGRFTISRDNAKNTVYLQMNSLKPEDTAVYYCAADYRVSSDYRYDYWGQGTQVTVSS,low polyreactivity
12,QVQLVESGGGLVQAGGSLRLSCAASGRIFVDNTMGWYRQAPGKERELVAAISRRGTSTYYADSVKGRFTISRDTAKNTVFLQMNSLNPEDTAVYYCAADYYYYDSQQGMDYWGQGTQVTVSS,high polyreactivity
13,QVQLVESGGGLVQAGGSLRLSCAASGRIFVDYDMGWYRPAPGKERELVATISSGGSTNYADSVKGRFTISRDNAKNTVYLQMNSLKPEDTAVYYCAASSYSTSYIRGDYWGQGTQVTVSS,low polyreactivity
14,QVQLVESGGGLVQAGGSLRLSCAASGRIFVFNAMGWYRQAPGKERELVASISSSGGSTYYADSVKGRFTISRDNAKNTVYLQINSLKPEDTAVYYCARRSYHSRYNYWGQGTQVTVSS,high polyreactivity
15,QVQLVESGGGLVQAGGSLRLSCAASGRIFVFYAMGWYRQAPGKERELVAAITASSTRTYYADSVKGRFTISRDHAKNTVYLQLNSLKPEDTAVYYCARDIRQYILYGRGDYWGQGTQVTVSS,low polyreactivity
16,QVQLVESGGGLVQAGGSLRLSCAASGRIFVFYAMGWYRQAPGKERELVASITLTDGSTYYADSEKGRFTISRDNAKNTVYLQMNSLKPEDTAVYYCAARISGGSTFRYQRMYYWGQGTQVTVSS,low polyreactivity
